Patent US20250171562A1 (ALK ABELL, published 2025)

B1: A1B1(G4S)4 (bispecific antibody)
chain: EVQLLESGGGLVQPGGSLRLSCAASGFTFGNYDMAWVRQAPGKRPEWVSSIDTGGDITHYADSVKGRFTISRDNAKNTLYLQMNSLRPEDTAVYWCATDEEYALGPNEFDYYGQGTLVTVSGGGGSGGGGSGGGGSGGGGSQVQLQESGGGLVQTGGSLRLSCAVHGRTFSNTGMGWFRQAPGNERQFVAIISPSGTSTYYADSVKGRFTISRDPAKNTVYLQMNSLKMDDTAVYYCAASYGSNWSTLRHQRRNEYDAWGQGTQVAVS
B2: B1A1(G4S)4 (bispecific antibody)
chain: QVQLQESGGGLVQTGGSLRLSCAVHGRTFSNTGMGWFRQAPGNERQFVAIISPSGTSTYYADSVKGRFTISRDPAKNTVYLQMNSLKMDDTAVYYCAASYGSNWSTLRHQRRNEYDAWGQGTQVAVSGGGGSGGGGSGGGGSGGGGSEVQLLESGGGLVQPGGSLRLSCAASGFTFGNYDMAWVRQAPGKRPEWVSSIDTGGDITHYADSVKGRFTISRDNAKNTLYLQMNSLRPEDTAVYWCATDEEYALGPNEFDYYGQGTLVTVS
notes: two sdAbs linked by a peptide linker
B3: CIgG4B1A1(EAAAK)2 (Fc fusion)
chain 1: GPPCPPCPAPEFLGGPSVFLFPPKPKDTLMISRTPEVTCVVVDVSQEDPEVQFNWYVDGVEVHNAKTKPREEQFNSTYRVVSVLTVLHQDWLNGKEYKCKVSNKGLPSSIEKTISKAKGQPREPQVYTLPPCQEEMTKNQVSLWCLVKGFYPSDIAVEWESNGQPENNYKTTPPVLDSDGSFFLYSRLTVDKSRWQEGNVFSCSVMHEALHNHYTQKSLSLSLGKEAAAKEAAAKQVQLQESGGGLVQTGGSLRLSCAVHGRTFSNTGMGWFRQAPGNERQFVAIISPSGTSTYYADSVKGRFTISRDPAKNTVYLQMNSLKMDDTAVYYCAASYGSNWSTLRHQRRNEYDAWGQGTQVAVS
chain 2: GPPCPPCPAPEFLGGPSVFLFPPKPKDTLMISRTPEVTCVVVDVSQEDPEVQFNWYVDGVEVHNAKTKPREEQFNSTYRVVSVLTVLHQDWLNGKEYKCKVSNKGLPSSIEKTISKAKGQPREPQVCTLPPSQEEMTKNQVSLSCAVKGFYPSDIAVEWESNGQPENNYKTTPPVLDSDGSFFLVSRLTVDKSRWQEGNVFSCSVMHEALHNHYTQKSLSLSLGKEAAAKEAAAKEVQLLESGGGLVQPGGSLRLSCAASGFTFGNYDMAWVRQAPGKRPEWVSSIDTGGDITHYADSVKGRFTISRDNAKNTLYLQMNSLRPEDTAVYWCATDEEYALGPNEFDYYGQGTLVTVSS
B4: B2A1(G4S)4 (bispecific antibody)
chain: QVQLVESGGGLVQAGGSLRLSCAVFGSTFSNNVADWYRQAPGKQRELVARISASGATREYGDSVKGRFTISRDDAKNTMYLQMNNLKPEDTAVYRCHKIEWEDLSRKDYWGQGTQVTVSGGGGSGGGGSGGGGSGGGGSEVQLLESGGGLVQPGGSLRLSCAASGFTFGNYDMAWVRQAPGKRPEWVSSIDTGGDITHYADSVKGRFTISRDNAKNTLYLQMNSLRPEDTAVYWCATDEEYALGPNEFDYYGQGTLVTVS
B5: CIgG4B1A1(EAAAK) (Fc fusion)
chain 1: GPPCPPCPAPEFLGGPSVFLFPPKPKDTLMISRTPEVTCVVVDVSQEDPEVQFNWYVDGVEVHNAKTKPREEQFNSTYRVVSVLTVLHQDWLNGKEYKCKVSNKGLPSSIEKTISKAKGQPREPQVYTLPPCQEEMTKNQVSLWCLVKGFYPSDIAVEWESNGQPENNYKTTPPVLDSDGSFFLYSRLTVDKSRWQEGNVFSCSVMHEALHNHYTQKSLSLSLGKEAAAKQVQLQESGGGLVQTGGSLRLSCAVHGRTFSNTGMGWFRQAPGNERQFVAIISPSGTSTYYADSVKGRFTISRDPAKNTVYLQMNSLKMDDTAVYYCAASYGSNWSTLRHQRRNEYDAWGQGTQVAVS
chain 2: GPPCPPCPAPEFLGGPSVFLFPPKPKDTLMISRTPEVTCVVVDVSQEDPEVQFNWYVDGVEVHNAKTKPREEQFNSTYRVVSVLTVLHQDWLNGKEYKCKVSNKGLPSSIEKTISKAKGQPREPQVCTLPPSQEEMTKNQVSLSCAVKGFYPSDIAVEWESNGQPENNYKTTPPVLDSDGSFFLVSRLTVDKSRWQEGNVFSCSVMHEALHNHYTQKSLSLSLGKEAAAKEVQLLESGGGLVQPGGSLRLSCAASGFTFGNYDMAWVRQAPGKRPEWVSSIDTGGDITHYADSVKGRFTISRDNAKNTLYLQMNSLRPEDTAVYWCATDEEYALGPNEFDYYGQGTLVTVSS

Molecular target: T1, recombinant human IgE (human, UniProt P01854-1 1-428)
T1 construct: made in-house (ALK); preloaded on immobilised FcεRIα in the displacement ELISA
T1 sequence (P01854 other isoform, or with tags, fused parts or gaps): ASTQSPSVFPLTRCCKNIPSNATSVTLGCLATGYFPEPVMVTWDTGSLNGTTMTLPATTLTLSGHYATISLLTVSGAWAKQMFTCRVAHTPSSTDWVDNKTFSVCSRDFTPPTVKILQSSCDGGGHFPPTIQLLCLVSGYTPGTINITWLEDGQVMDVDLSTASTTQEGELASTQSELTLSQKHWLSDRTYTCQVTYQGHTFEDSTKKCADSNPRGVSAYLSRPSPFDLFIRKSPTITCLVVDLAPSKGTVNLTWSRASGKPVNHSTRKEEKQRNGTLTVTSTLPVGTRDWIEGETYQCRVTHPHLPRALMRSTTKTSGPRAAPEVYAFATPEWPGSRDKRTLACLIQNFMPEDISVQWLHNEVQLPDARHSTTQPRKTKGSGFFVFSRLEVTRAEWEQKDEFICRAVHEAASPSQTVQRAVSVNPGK
Experiment: IgE-FcεRIα displacement ELISA
Procedure, shortened: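 Streptavidin-coated plates carried site-specifically biotinylated recombinant human FcεRIα, loaded with recombinant human IgE at 13 ng/ml. sdAbs in a pM–μM series were added for 1 h, and displaced IgE was washed off. Percent displacement was the signal reduction versus the no-sdAb control, giving EC50 and maximal effect.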

Binder	EC50 [nM]	Max effect [%]
B1	0.9	> 95
B2	1.9	> 95
B3	4.1	> 95
B4	30	> 95
B5	3	> 95
